Results reported in the Immune Epitope Database (IEDB).
pIC50, pKd: −log10 of the molar value.

How the values were obtained:
[1] = biological target: HLA-A*02:02; assay: IEDB peptide-MHC binding, purified MHC/competitive/radioactivity; filed as Kd, often an IC50 or EC50 that approximates it; ≥ and ≤ were set here for values at or beyond the usual limits of such assays
[2] = biological target: HLA-A*02:03; assay: as above
[3] = biological target: HLA-A*02:06; assay: as above
[4] = biological target: HLA-A*02:01; assay: IEDB peptide-MHC binding, purified MHC/competitive/fluorescence; filed as Kd, often an IC50 or EC50 that approximates it; ≥ and ≤ were set here for values at or beyond the usual limits of such assays
[5] = biological target: HLA-A*30:01; assay: IEDB peptide-MHC binding, purified MHC/competitive/radioactivity; filed as Kd, often an IC50 or EC50 that approximates it; ≥ and ≤ were set here for values at or beyond the usual limits of such assays
[6] = biological target: HLA-A*02:01; assay: IEDB peptide-MHC binding, purified MHC/competitive/fluorescence; ≥ and ≤ were set here for values at or beyond the usual limits of such assays
[7] = biological target: HLA-B*07:02; assay: IEDB peptide-MHC binding, purified MHC/direct/fluorescence; filed as Kd, often an IC50 or EC50 that approximates it; ≥ and ≤ were set here for values at or beyond the usual limits of such assays; conditions: source organism: Homo sapiens
[8] = biological target: HLA-B*58:01; assay: as above; conditions: source organism: Homo sapiens
[9] = biological target: HLA-A*68:01; assay: IEDB peptide-MHC binding, purified MHC/competitive/radioactivity; filed as Kd, often an IC50 or EC50 that approximates it; ≥ and ≤ were set here for values at or beyond the usual limits of such assays
[10] = biological target: HLA-A*69:01; assay: IEDB peptide-MHC binding, purified MHC/direct/fluorescence; filed as Kd, often an IC50 or EC50 that approximates it; ≥ and ≤ were set here for values at or beyond the usual limits of such assays; conditions: source organism: Mycobacterium tuberculosis
[11] = biological target: HLA-A*03:01; assay: IEDB peptide-MHC binding, purified MHC/competitive/radioactivity; filed as Kd, often an IC50 or EC50 that approximates it; ≥ and ≤ were set here for values at or beyond the usual limits of such assays; conditions: source organism: Vaccinia virus WR
[12] = biological target: HLA-A*11:01; assay: as above; conditions: source organism: Vaccinia virus WR
[13] = biological target: HLA-A*31:01; assay: as above; conditions: source organism: Vaccinia virus WR
[14] = biological target: HLA-A*33:01; assay: as above; conditions: source organism: Vaccinia virus WR
[15] = biological target: HLA-A*30:02; assay: as above; conditions: source organism: Dengue virus 2 Jamaica/1409/1983
[16] = source organism: Mammarenavirus whitewaterense
[17] = source organism: Vaccinia virus WR
[18] = source organism: Dengue virus 2 Jamaica/1409/1983
[19] = source organism: Dengue virus 3 Martinique/1243/1999
[20] = source organism: Dengue virus 1 Brazil/97-11/1997
[21] = source organism: Mammarenavirus guanaritoense
[22] = source organism: Sudan ebolavirus
[23] = source organism: SARS coronavirus Tor2
[24] = source organism: Mammarenavirus brazilense

Sequence | pKd [1, 17] | pKd [2, 17] | pKd [3, 17] | also measured
VCFWSTLFYV |  |  |  | pKd [1, 16]: 6.46; pKd [2, 16]: 5.15; pKd [3, 16]: 5.95
HVLLPFYET | 4.79 | 4.73 | 5.76 | 
LLPDSDVFV |  |  |  | pKd [4, 17]: 8.96
LAAVSVSPLL |  |  |  | pKd [5, 18]: 5.22
MMPIKSIVTL |  |  |  | pKd ([4]; source organism: Variola virus): 8.29
HVLLPFYETL | 7.53 | 6.67 | 6.94 | 
SQDTTIPDV |  |  |  | pIC50 ([6]; source organism: Zaire ebolavirus): 5.27
ITDNGPMPYM | 6.08 | 5.93 | 6.52 | 
DPSGAYFAW |  |  |  | pKd [7]: 4.75; pKd [8]: 5.80
ESRTIRVLK |  |  |  | pKd [5, 19]: 8.06; pKd [9, 19]: 6.63
FLHGGDFGV |  |  |  | pKd [10]: 6.16
SQKTTWLPV |  |  |  | pKd [3, 20]: 6.76; pKd [5, 20]: 7.82
LVQYRILPMI | 4.90 | 5.92 | 6.15 | 
YCNYTRFWYI |  |  |  | pKd [1, 21]: 5.98; pKd [2, 21]: 5.36; pKd [3, 21]: 7.09
EVTEIDQLV |  |  |  | pIC50 [6, 22]: ≤ 4.07
SLVKPTVYV |  |  |  | pKd [1, 23]: 6.97; pKd [2, 23]: 7.43; pKd [3, 23]: 6.33
LLKCVSDSWL | 7.12 | 6.93 | 5.33 | 
NAAGIAWIP |  |  |  | pIC50 [6, 22]: 4.19
TLIDFYLCFL |  |  |  | pKd [1, 23]: 10.39; pKd [2, 23]: 8.45; pKd [3, 23]: 8.52

Sequence | pKd [1, 17] | pKd [2, 17] | pKd [3, 17] | also measured
MISTYPGNT | 5.26 | 6.64 | ≤ 4.59 | 
RTKLMSNIK |  |  |  | pKd [11]: 7.63; pKd [12]: 7.53; pKd [5, 17]: 9.42; pKd [13]: 8.35; pKd [14]: ≤ 4.25; pKd [9, 17]: 6.11
ASKFVYVSV |  |  |  | pKd [5, 17]: 8.51
IALCKVTVPT | 5.71 | 5.65 | 6.19 | 
GILIYDDNI | 4.93 | 5.77 | 4.88 | 
SLEATFIDV | 7.46 | 7.09 | 7.99 | 
SMYVIPDEL | 8.30 | 7.87 | 5.55 | 
KAKWLTPFE |  |  |  | pKd [5, 17]: 6.18
LTSVDIETA | 5.31 | 4.94 | 6.51 | 
AVKFAEESYT | 5.75 | 5.83 | 5.64 | 
GYSQIGAGVY |  |  |  | pKd [15]: 6.90
KVVRVQRPA |  |  |  | pKd [5, 20]: 7.21
RARNRVSTG |  |  |  | pKd [5, 20]: 6.74
DLLLPSTDV | 4.82 | 5.41 | 5.97 | 
LRFLTIPPTA |  |  |  | pKd [5, 18]: 6.02
LRYFIMAYV |  |  |  | pKd [1, 24]: 6.67; pKd [2, 24]: 6.40; pKd [3, 24]: ≤ 4.70
MLNRVQILM | 8.32 | 7.57 | 5.59 | 
SLLRNDVPMA |  |  |  | pKd [5, 19]: 5.61
DVFRPLFDFV | 5.99 | 5.59 | 6.63 | 
